T1: human IL4 (IL004, Millipore) (human, UniProt P05112 25-153)
T1 construct: Bought protein, used as analyte in SPR; also called interleukin IL4
T1 sequence (looked up): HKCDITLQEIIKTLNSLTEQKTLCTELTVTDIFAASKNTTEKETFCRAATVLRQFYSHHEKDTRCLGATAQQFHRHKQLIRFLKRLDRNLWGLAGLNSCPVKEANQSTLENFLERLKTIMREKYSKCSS


Tests used:
[1] = target: T1, human IL4 (IL004, Millipore); assay: SPR (Biacore 3000), construct captured, IL4 as analyte; summary table
Procedure: (§1) Binding of antigens to the antibody constructs was measured using surface plasmon resonance (SPR) on a BIAcore 3000 instrument (GE Healthcare) with HBS-EP buffer (GE Healthcare). As antigens human IL4 (IL004, Millipore) and human IL13 (IL012, Millipore) were used. The capture antibody (human antibody capture kit, His capture kit, Fab capture kit, GE Life Sciences) was immobilized via primary amine groups (11000 RU) on a research grade CMS chip (GE Life Sciences) using standard procedures. […] The antigens human IL4 and human IL13 were used as analytes and injected for 240 sec with a dissociation time of 300 sec at a flow rate of 30 μL/min. IL4 and IL13 were used in a dilution series of 0.1 nM to 3 nM and 0.8 nM to 25 nM, respectively. Chip surfaces were regenerated with 2 min injects of the regeneration buffer provided with the capture kit. Sensorgrams were double referenced with a blank chip surface and HBS-EP buffer blanks. Recombinant human neonatal Fc-receptor (FcRn) protein was immobilized via primary amine groups (200 RU) in the sample flow cell compartment of a research grade CMS chip (GE Life Sciences) using standard procedures. The reference flow cell compartment was activated and deactivated without FcRn immobilization to generate a blank chip surface. For the analysis an assay buffer with pH 6.0 was used (150 mM NaCl, 20 mM Na-phosphate, 0.05% surfactant P20, pH6.0). The antibody was used as analyte at 800 nM dilution in assay buffer and injected over reference and sample flow cells for 240 sec with a dissociation time of 300 sec at a flow rate of 30 μL/min. Chip surfaces were regenerated with 2 min injects of HBS-EP buffer at 30 μl/min. Sensorgrams were double referenced with a the blank chip surface and HBS-EP buffer blanks. All data analysis was done using the BIAevaluation software v4.1.

[2] = target: T1, human IL4 (IL004, Millipore); assay: SPR (Biacore), variant captured with human antibody capture kit, IL4 as analyte
Procedure: as §1

[3] = target: T1, human IL4 (IL004, Millipore); assay: SPR (Biacore), variant captured with His-capture kit, IL4 as analyte
Procedure: as §1

Binder	Kd [1] [pM]	Kd [2] [pM]	koff [2] [s⁻¹]	kon [2] [M⁻¹ s⁻¹]	Ka [3] [M⁻¹]	Kd [3] [pM]	koff [3] [s⁻¹]	kon [3] [M⁻¹ s⁻¹]
protein variant (9), DVD-Split CH2 tetravalent bispecific antibody (bispecific antibody, human IgG4 S228P, kappa, variant (2) fused to an IgG Fc-domain) chain 1: DIVLTQSPASLAVSLGQRATISCRASESVDSYGQSYMHWYQQKAGQPPKLLIYLASNLESGVPARFSGSGSRTDFTLTIDPVQAEDAATYYCQQNAEDSRTFGGGTKLEIKGGGGSGGGGSDIQMTQSPASLSVSVGDTITLTCHASQNIDVWLSWFQQKPGNIPKLLIYKASNLHTGVPSRFSGSGSGTGFTLTISSLQPEDIATYYCQQAHSYPFTFGGGTKLEIKRTVAAPSVFIFPPSDEQLKSGTASVVCLLNNFYPREAKVQWKVDNALQSGNSQESVTEQDSKDSTYSLSSTLTLSKADYEKHKVYACEVTHQGLSSPVTKSFNRGECGGPSVFLFPPKPKDTLMISRTPEVTCVVVDVSHEDPEVKFNWYVDGVEVHN chain 2: not shown	6.09	6.09	0.000108	1.77e+07				
protein variant (10), CODV-Split CH2 tetravalent bispecific antibody (bispecific antibody, human IgG4 S228P, kappa, variant (3) fused to an IgG Fc-domain) chain 1: DIVLTQSPASLAVSLGQRATISCRASESVDSYGQSYMHWYQQKAGQPPKLLIYLASNLESGVPARFSGSGSRTDFTLTIDPVQAEDAATYYCQQNAEDSRTFGGGTKLEIKGQPKAAPSDIQMTQSPASLSVSVGDTITLTCHASQNIDVWLSWFQQKPGNIPKLLIYKASNLHTGVPSRFSGSGSGTGFTLTISSLQPEDIATYYCQQAHSYPFTFGGGTKLEIKTKGPSVFRTVAAPSVFIFPPSDEQLKSGTASVVCLLNNFYPREAKVQWKVDNALQSGNSQESVTEQDSKDSTYSLSSTLTLSKADYEKHKVYACEVTHQGLSSPVTKSFNRGECGGPSVFLFPPKPKDTLMISRTPEVTCVVVDVSHEDPEVKFNWYVDGVEVHN chain 2: not shown	0.222	0.222	0.000204	9.19e+08				
protein variant (7), Diabody Split CH2 (included) ("Splite") (bispecific antibody, Splite diabody with other linkers than variant (4); also called splite diabody) chain 1: DIVLTQSPASLAVSLGQRATISCRASESVDSYGQSYMHWYQQKAGQPPKLLIYLASNLESGVPARFSGSGSRTDFTLTIDPVQAEDAATYYCQQNAEDSRTFGGGTKLEIKGGPSVFLFPPKPKDTLMISRTPEVTCVVVDVSHEDPEVKFNWYVDGVEVHNDIQMTQSPASLSVSVGDTITLTCHASQNIDVWLSWFQQKPGNIPKLLIYKASNLHTGVPSRFSGSGSGTGFTLTISSLQPEDIATYYCQQAHSYPFTFGGGTKLEIK chain 2: EVQLKESGPGLVAPGGSLSITCTVSGFSLTDSSINWVRQPPGKGLEWLGMIWGDGRIDYADALKSRLSISKDSSKSQVFLEMTSLRTDDTATYYCARDGYFPYAMDFWGQGTSVTVSSGGGGSGGGGSGGGGSAKTKPREEQYNSTYRVVSVLTVLHQDWLNGKEYKCKVSNKALPAPIEKTISKAKGQPREQVQLQQSGPELVKPGASVKISCKASGYSFTSYWIHWIKQRPGQGLEWIGMIDPSDGETRLNQRFQGRATLTVDESTSTAYMQLRSPTSEDSAVYYCTRLKEYGNYDSFYFDVWGAGTLVTVSSHHHHHH	68.5				1.46e+10	68.5	0.000232	3.38e+06
protein variant (4), Diabody Split CH2 (included) ("Splite") (bispecific antibody, IgG1, Split IgG1 CH2 domain inserted between the variable domains; also called splite diabody) chain 1: DIVLTQSPASLAVSLGQRATISCRASESVDSYGQSYMHWYQQKAGQPPKLLIYLASNLESGVPARFSGSGSRTDFTLTIDPVQAEDAATYYCQQNAEDSRTFGGGTKLEIKGGPSVFLFPPKPKDTLMISRTPEVTCVVVDVSHEDPEVKFNWYVDGVEVHNGGGGSGGGGSGGGGSDIQMTQSPASLSVSVGDTITLTCHASQNIDVWLSWFQQKPGNIPKLLIYKASNLHTGVPSRFSGSGSGTGFTLTISSLQPEDIATYYCQQAHSYPFTFGGGTKLEIK chain 2: EVQLKESGPGLVAPGGSLSITCTVSGFSLTDSSINWVRQPPGKGLEWLGMIWGDGRIDYADALKSRLSISKDSSKSQVFLEMTSLRTDDTATYYCARDGYFPYAMDFWGQGTSVTVSSGGGGSGGGGSGGGGSAKTKPREEQYNSTYRVVSVLTVLHQDWLNGKEYKCKVSNKALPAPIEKTISKAKGQPREQVQLQQSGPELVKPGASVKISCKASGYSFTSYWIHWIKQRPGQGLEWIGMIDPSDGETRLNQRFQGRATLTVDESTSTAYMQLRSPTSEDSAVYYCTRLKEYGNYDSFYFDVWGAGTLVTVSSHHHHHH	64.8					64.8	0.000224	3.46e+06
protein variant (6), Diabody Split CH2 (included) ("Splite") (bispecific antibody, Splite diabody with other linkers than variant (4); also called splite diabody) chain 1: DIVLTQSPASLAVSLGQRATISCRASESVDSYGQSYMHWYQQKAGQPPKLLIYLASNLESGVPARFSGSGSRTDFTLTIDPVQAEDAATYYCQQNAEDSRTFGGGTKLEIKGGPSVFLFPPKPKDTLMISRTPEVTCVVVDVSHEDPEVKFNWYVDGVEVHNGGGGSGGGGSGGGGSDIQMTQSPASLSVSVGDTITLTCHASQNIDVWLSWFQQKPGNIPKLLIYKASNLHTGVPSRFSGSGSGTGFTLTISSLQPEDIATYYCQQAHSYPFTFGGGTKLEIK chain 2: EVQLKESGPGLVAPGGSLSITCTVSGFSLTDSSINWVRQPPGKGLEWLGMIWGDGRIDYADALKSRLSISKDSSKSQVFLEMTSLRTDDTATYYCARDGYFPYAMDFWGQGTSVTVSSGGGAKTKPREEQYNSTYRVVSVLTVLHQDWLNGKEYKCKVSNKALPAPIEKTISKAKGQPREQVQLQQSGPELVKPGASVKISCKASGYSFTSYWIHWIKQRPGQGLEWIGMIDPSDGETRLNQRFQGRATLTVDESTSTAYMQLRSPTSEDSAVYYCTRLKEYGNYDSFYFDVWGAGTLVTVSSHHHHHH	87.8				1.14e+10	87.8	0.000261	2.97e+06

Other lines, results leading:

Kd [1] [pM]	Kd [2] [pM]	koff [2] [s⁻¹]	kon [2] [M⁻¹ s⁻¹]	Ka [3] [M⁻¹]	Kd [3] [pM]	koff [3] [s⁻¹]	kon [3] [M⁻¹ s⁻¹]	Binder
1.43	1.43	0.000135	9.49e+07					protein variant (8), Diabody Split CH2 tetravalent bispecific antibody (bispecific antibody, human IgG4 S228P, variant (1) fused to an IgG Fc-domain) chain 1: DIVLTQSPASLAVSLGQRATISCRASESVDSYGQSYMHWYQQKAGQPPKLLIYLASNLESGVPARFSGSGSRTDFTLTIDPVQAEDAATYYCQQNAEDSRTFGGGTKLEIKGGGSGGGGQVQLQQSGPELVKPGASVKISCKASGYSFTSYWIHWIKQRPGQGLEWIGMIDPSDGETRLNQRFQGRATLTVDESTSTAYMQLRSPTSEDSAVYYCTRLKEYGNYDSFYFDVWGAGTLVTVSSGGPSVFLFPPKPKDTLMISRTPEVTCVVVDVSHEDPEVKFNWYVDGVEVHN chain 2: not shown
16				6.24e+10	16	0.00117	7.32e+07	protein variant (1), Diabody-added Split CH2 (diabody split CH2, anti-IL4/anti-IL13) (bispecific antibody, Two chains joined by the disulfide bond of the reassembled IgG1 split CH2 domain) chain 1: DIVLTQSPASLAVSLGQRATISCRASESVDSYGQSYMHWYQQKAGQPPKLLIYLASNLESGVPARFSGSGSRTDFTLTIDPVQAEDAATYYCQQNAEDSRTFGGGTKLEIKGGGSGGGGQVQLQQSGPELVKPGASVKISCKASGYSFTSYWIHWIKQRPGQGLEWIGMIDPSDGETRLNQRFQGRATLTVDESTSTAYMQLRSPTSEDSAVYYCTRLKEYGNYDSFYFDVWGAGTLVTVSSGGPSVFLFPPKPKDTLMISRTPEVTCVVVDVSHEDPEVKFNWYVDGVEVHN chain 2: DIQMTQSPASLSVSVGDTITLTCHASQNIDVWLSWFQQKPGNIPKLLIYKASNLHTGVPSRFSGSGSGTGFTLTISSLQPEDIATYYCQQAHSYPFTFGGGTKLEIKGGGSGGGGEVQLKESGPGLVAPGGSLSITCTVSGFSLTDSSINWVRQPPGKGLEWLGMIWGDGRIDYADALKSRLSISKDSSKSQVFLEMTSLRTDDTATYYCARDGYFPYAMDFWGQGTSVTVSSGGGGSGGGGSAKTKPREEQYNSTYRVVSVLTVLHQDWLNGKEYKCKVSNKALPAPIEKTISKAKGQPREHHHHHH
40.3					40.3	0.000165	4.1e+06	protein variant (5), Diabody Split CH2 (included) ("Splite") (bispecific antibody, Splite diabody with other linkers than variant (4); also called splite diabody) chain 1: DIVLTQSPASLAVSLGQRATISCRASESVDSYGQSYMHWYQQKAGQPPKLLIYLASNLESGVPARFSGSGSRTDFTLTIDPVQAEDAATYYCQQNAEDSRTFGGGTKLEIKGGPSVFLFPPKPKDTLMISRTPEVTCVVVDVSHEDPEVKFNWYVDGVEVHNDIQMTQSPASLSVSVGDTITLTCHASQNIDVWLSWFQQKPGNIPKLLIYKASNLHTGVPSRFSGSGSGTGFTLTISSLQPEDIATYYCQQAHSYPFTFGGGTKLEIK chain 2: EVQLKESGPGLVAPGGSLSITCTVSGFSLTDSSINWVRQPPGKGLEWLGMIWGDGRIDYADALKSRLSISKDSSKSQVFLEMTSLRTDDTATYYCARDGYFPYAMDFWGQGTSVTVSSGGGAKTKPREEQYNSTYRVVSVLTVLHQDWLNGKEYKCKVSNKALPAPIEKTISKAKGQPREQVQLQQSGPELVKPGASVKISCKASGYSFTSYWIHWIKQRPGQGLEWIGMIDPSDGETRLNQRFQGRATLTVDESTSTAYMQLRSPTSEDSAVYYCTRLKEYGNYDSFYFDVWGAGTLVTVSSHHHHHH
